These results are taken from IntAct's records for PubMed 17290227.

First the molecules themselves.
B1: Docking protein 3 (Homo sapiens), Q7L591 (parent)
chain: MTRGARLRSDARAQLNQLSLDGGTGSGQKGKCEEFPSSLSSVSPGLEAAALLLAVTMDPLETPIKDGILYQQHVKFGKKCWRKVWALLYAGGPSGVARLESWEVRDGGLGAAGDRSAGPGRRGERRVIRLADCVSVLPADGESCPRDTGAFLLTTTERSHLLAAQHRQAWMGPICQLAFPGTGEASSGSTDAQSPKRGLVPMEENSIYSSWQEVGEFPVVVQRTEAATRCQLKGPALLVLGPDAIQLREAKGTQALYSWPYHFLRKFGSDKGVFSFEAGRRCHSGEGLFAFSTPCAPDLCRAVAGAIARQRERLPELTRPQPCPLPRATSLPSLDTPGELREMPPGPEPPTSRKMHLAEPGPQSLPLLLGPEPNDLASGLYASVCKRASGPPGNEHLYENLCVLEASPTLHGGEPEPHEGPGSRSPTTSPIYHNGQDLSWPGPANDSTLEAQYRRLLELDQVEGTGRPDPQAGFKAKLVTLLSRERRKGPAPCDRP
partner: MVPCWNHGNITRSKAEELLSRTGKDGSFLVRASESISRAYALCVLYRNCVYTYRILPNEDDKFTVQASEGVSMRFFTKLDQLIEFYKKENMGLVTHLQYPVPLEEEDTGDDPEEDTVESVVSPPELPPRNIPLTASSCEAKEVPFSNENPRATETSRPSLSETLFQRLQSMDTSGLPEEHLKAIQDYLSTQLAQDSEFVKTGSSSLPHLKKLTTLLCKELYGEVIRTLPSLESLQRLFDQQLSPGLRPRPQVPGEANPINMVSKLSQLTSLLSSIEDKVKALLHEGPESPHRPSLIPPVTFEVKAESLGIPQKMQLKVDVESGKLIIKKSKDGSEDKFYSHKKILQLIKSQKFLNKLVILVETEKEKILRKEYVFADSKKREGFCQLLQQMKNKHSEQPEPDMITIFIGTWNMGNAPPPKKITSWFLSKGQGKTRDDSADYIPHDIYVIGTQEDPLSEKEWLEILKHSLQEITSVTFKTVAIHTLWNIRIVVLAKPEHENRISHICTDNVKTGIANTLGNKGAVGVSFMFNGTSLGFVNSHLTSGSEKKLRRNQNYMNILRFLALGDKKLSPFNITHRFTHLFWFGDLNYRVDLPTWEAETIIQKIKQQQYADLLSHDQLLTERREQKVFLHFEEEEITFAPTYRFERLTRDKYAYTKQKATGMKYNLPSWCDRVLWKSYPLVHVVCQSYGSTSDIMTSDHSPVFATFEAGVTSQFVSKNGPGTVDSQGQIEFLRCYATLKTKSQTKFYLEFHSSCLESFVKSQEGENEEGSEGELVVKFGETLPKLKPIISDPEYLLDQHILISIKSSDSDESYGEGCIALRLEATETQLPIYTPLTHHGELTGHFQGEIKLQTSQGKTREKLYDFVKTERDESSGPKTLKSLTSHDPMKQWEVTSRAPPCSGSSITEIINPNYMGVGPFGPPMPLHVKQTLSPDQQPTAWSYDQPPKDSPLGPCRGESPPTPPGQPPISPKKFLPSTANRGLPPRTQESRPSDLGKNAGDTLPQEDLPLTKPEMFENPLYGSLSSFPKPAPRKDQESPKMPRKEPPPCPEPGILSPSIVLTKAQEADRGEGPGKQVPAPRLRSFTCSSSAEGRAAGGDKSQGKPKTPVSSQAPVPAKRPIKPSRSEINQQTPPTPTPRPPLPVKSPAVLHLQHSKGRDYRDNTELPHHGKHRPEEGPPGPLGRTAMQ

In the assay the parent is B1. The settings on record: with ship1_human INPP5D.
As to MTRGARLRSDARAQLNQLSLDGGTGSGQKGKCEEFPSSLSSVSPGLEAAALLLAVTMDPLETPIKDGILYQQHVKFGKKCWRKVWALLYAGGPSGVARLESWEVRDGGLGAAGDRSAGPGRRGERRVIRLADCVSVLPADGESCPRDTGAFLLTTTERSHLLAAQHRQAWMGPICQLAFPGTGEASSGSTDAQSPKFGLVPMEENSIYSSWQEVGEFPVVVQRTEAATRCQLKGPALLVLGPDAIQLREAKGTQALYSWPYHFLRKFGSDKGVFSFEAGRRCHSGEGLFAFSTPCAPDLCRAVAGAIARQRERLPELTRPQPCPLPRATSLPSLDTPGELREMPPGPEPPTSRKMHLAEPGPQSLPLLLGPEPNDLASGLYASVCKRASGPPGNEHLYENLCVLEASPTLHGGEPEPHEGPGSRSPTTSPIYHNGQDLSWPGPANDSTLEAQYRRLLELDQVEGTGRPDPQAGFKAKLVTLLSRERRKGPAPCDRP [R197F], the “effect of a mutation on the interaction” value was “decreasing interaction”.
